Test results taken from patent US20230143582A1.

Target: Wnt receptors on the cell surface of the HEK293 TCF9-SEAP reporter cell line
Experiment: cell-based or functional assay

Substance: recombinant human Wnt3a protein (from UniProt P56704 19-352) (ligand)
- ED50 in the HEK293 TCF9-Secreted Alkaline Phosphatase (SEAP) Wnt-responsive reporter assay, lot DLGC02: 0.221 µg/mL
- ED50 in the HEK293 TCF9-Secreted Alkaline Phosphatase (SEAP) Wnt-responsive reporter assay, lot RSK51: 0.145 µg/mL
- ED50 in the HEK293 TCF9-Secreted Alkaline Phosphatase (SEAP) Wnt-responsive reporter assay, lot RSK69: 0.191 µg/mL
